{"source": "patent US20030077679", "key": {"[1]": {"target": "T1, human EID-1 with an N-terminal V5-HIS6 tag (in p423CDN)", "T1 chain": "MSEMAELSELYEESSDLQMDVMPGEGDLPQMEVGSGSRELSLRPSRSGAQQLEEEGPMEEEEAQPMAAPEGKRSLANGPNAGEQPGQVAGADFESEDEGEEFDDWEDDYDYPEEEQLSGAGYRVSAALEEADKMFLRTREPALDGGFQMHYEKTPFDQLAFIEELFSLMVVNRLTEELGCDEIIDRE"}, "[2]": {"target": "T2, human EID-1 (SEQ ID NO:4) expressed in E. coli as an N-terminal HIS6 fusion", "T2 chain": "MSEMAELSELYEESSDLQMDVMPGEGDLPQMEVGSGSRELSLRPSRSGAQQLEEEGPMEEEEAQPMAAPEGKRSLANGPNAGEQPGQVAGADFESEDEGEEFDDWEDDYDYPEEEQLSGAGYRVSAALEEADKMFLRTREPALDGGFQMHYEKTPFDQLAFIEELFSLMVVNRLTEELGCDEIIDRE"}}}
{"protein": "human DYRK3 catalytic domain (amino acids 142-526 of SEQ ID NO:2) with an N-terminal GST-tag and C-terminal HIS6-tag (protein) PEQALKQYKHHLTAYEKLEIINYPEIYFVGPNAKKRHGVIGGPNNGGYDDADGAYIHVPRDHLAYRYEVLKIIGKGSFGQVARVYDHKLRQYVALKMVRNEKRFHRQAAEEIRILEHLKKQDKTGSMNVIHMLESFTFRNHVCMAFELLSIDLYELIKKNKFQGFSVQLVRKFAQSILQSLDALHKNKIIHCDLKPENILLKHHGRSSTKVIDFGSSCFEYQKLYTYIQSRFYRAPEIILGSRYSTPIDIWSFGCILAELLTGQPLFPGEDEGDQLACMMELLGMPPPKLLEQSKRAKYFINSKGIPRYCSVTTQADGRVVLVGGRSRRGKKRGPPGSKDWGTALKGCDDYLFIEFLKRCLHWDPSARLTPAQALRHPWISKSVP", "values": [{"measurement": "in vitro kinase assay with gamma-33P-ATP, radioactive band on Phosphorimager", "setting": "[1]", "value": "There is a radioactive band that migrates at the same position as the EID-1 protein in the western blot while this band is absent in the vector alone lane"}]}
{"protein": "human DYRK2 (SEQ ID NO:6) with an N-terminal HIS6-tag (protein) MNDHLHVGSHAHGQIQVQQLFEDNSNKRTVLTTQPNGLTTVGKTGLPVVPERQLDSIHRRQGSSTSLKSMEGMGKVKATPMTPEQAMKQYMQKLTAFEHHEIFSYPEIYFLGLNAKKRQGMTGGPNNGGYDDDQGSYVQVPHDHVAYRYEVLKVIGKGSFGQVVKAYDHKVHQHVALKMVRNEKRFHRQAAEEIRILEHLRKQDKDNTMNVIHMLENFTFRNHICMTFELLSMNLYELIKKNKFQGFSLPLVRKFAHSILQCLDALHKNRIIHCDLKPENILLKQQGRSGIKVIDFGSSCYEHQRVYTYIQSRFYRAPEVILGARYGMPIDMWSLGCILAELLTGYPLLPGEDEGDQLACMIELLGMPSQKLLDASKRAKNFVSSKGYPRYCTVTTLSDGSVVLNGGRSRRGKLRGPPESREWGNALKGCDDPLFLDFLKQCLEWDPAVRMTPGQALRHPWLRRRLPKPPTGEKTSVKRITESTGAITSISKLPPPSSSASKLRTNLAQMTDANGNIQQRTVLPKLVS", "values": [{"measurement": "in vitro kinase assay with gamma-33P-ATP, radioactive band on Phosphorimager", "setting": "[1]", "value": "There is a radioactive band that migrates at the same position as the EID-1 protein in the western blot while this band is absent in the vector alone lane"}]}
{"protein": "recombinant hDYRK3 (SEQ ID NO: 2) as used in Example 4 (protein) MGGTARGPGRKDAGPPGAGLPPQQRRLGDGVDTFMMIDETKCPPCSNVLCNPSEPPPPRRLNMTTEQFTGDHTQHFLDGGEMKVEQLFQEFGNRKSNTIQSDGISDSEKCSPTVSQGKSSDCLNTVKSNSSSKAPKVVPLTPEQALKQYKHHLTAYEKLEIINYPEIYFVGPNAKKRHGVIGGPNNGGYDDADGAYIHVPRDHLAYRYEVLKIIGKGSFGQVARVYDHKLRQYVALKMVRNEKRFHRQAAEEIRILEHLKKQDKTGSMNVIHMLESFTFRNHVCMAFELLSIDLYELIKKNKFQGFSVQLVRKFAQSILQSLDALHKNKIIHCDLKPENILLKHHGRSSTKVIDFGSSCFEYQKLYTYIQSRFYRAPEIILGSRYSTPIDIWSFGCILAELLTGQPLFPGEDEGDQLACMMELLGMPPPKLLEQSKRAKYFINSKGIPRYCSVTTQADGRVVLVGGRSRRGKKRGPPGSKDWGTALKGCDDYLFIEFLKRCLHWDPSARLTPAQALRHPWISKSVPRPLTTIDKVSGKRVVNPASAFQGLGSKLPPVVGIANKLKANLMSETNGSIPLCSVLPKLIS", "values": [{"measurement": "in vitro kinase assay with 33P-ATP, then LC-ES MS/MS of the Asp-N digest", "setting": "[2]", "value": "there was a radioactive band that migrated at the same position as the EID-1 protein following electrophoresis"}]}
